Laboratory results as given in publication PMC4836274, “Cytokine-Like Factor 1, an Essential Facilitator of Cardiotrophin-Like Cytokine:Ciliary Neurotrophic Factor Receptor α Signaling and sorLA-Mediated Turnover” (Molecular and Cellular Biology, 2016).

B2: recombinant soluble ciliary neurotrophic factor receptor α (receptor, human, UniProt P26992 23-342, looked up)
chain: QRHSPQEAPHVQYERLGSDVTLPCGTANWDAAVTWRVNGTDLAPDLLNGSQLVLHGLELGHSGLYACFHRDSWHLRHQVLLHVGLPPREPVLSCRSNTYPKGFYCSWHLPTPTYIPNTFNVTVLHGSKIMVCEKDPALKNRCHIRYMHLFSTIKYKVSISVSNALGHNATAITFDEFTIVKPDPPENVVARPVPSNPRRLEVTWQTPSTWPDPESFPLKFFLRYRPLILDQWQHVELSDGTAHTITDAYAGKEYIIQVAAKDNEIGTWSDWSVAAHATPWTEEPRHLTTEAQAAETTTSTTSSLAPPPTTKICDPGELGS
notes: CNTF receptor α, human, soluble recombinant form; also called sCNTFRα; soluble CNTFRα; source: bought: R&D Systems
B4: cardiotrophin-like cytokine:cytokine-like factor-1 heterodimer (complex, human)
chain 1: LNRTGDPGPGPSIQKTYDLTRYLEHQLRSLAGTYLNYLGPPFNEPDFNPPRLGAETLPRATVDLEVWRSLNDKLRLTQNYEAYSHLLCYLRGLNRQAATAELRRSLAHFCTSLQGLLGSIAGVMAALGYPLPQPLPGTEPTWTPGPAHSDFLQKMDDFWLLKELQTWLWRSAKDFNRLKKKMQPPAAAVTLHLGAHGF
chain 2: AHTAVISPQDPTLLIGSSLLATCSVHGDPPGATAEGLYWTLNGRRLPPELSRVLNASTLALALANLNGSRQRSGDNLVCHARDGSILAGSCLYVGLPPEKPVNISCWSKNMKDLTCRWTPGAHGETFLHTNYSLKYKLRWYGQDNTCEEYHTVGPHSCHIPKDLALFTPYEIWVEATNRLGSARSDVLTLDILDVVTTDPPPDVHVSRVGGLEDQLSVRWVSPPALKDFLFQAKYQIRYRVEDSVDWKVVDDVSNQTSCRLAGLKPGTVYFVQVRCNPFGIYGSKKAGIWSEWSHPTAASTPRSERPGPGGGACEPRGGEPSSGPVRRELKQFLGWLKKHAYCSNLSFRLYDQWRAWMQKSHKTRNQDEGILPSGRRGTARGPAR
notes: cardiotrophin-like cytokine (CLC), human, subunit of the bought recombinant heterodimer; cytokine-like factor-1 (CLF-1; cytokine receptor-like factor 1), human, subunit of the bought recombinant heterodimer; also called CLC:CLF-1; His-tagged CLC:CLF-1; source: bought: R&D Systems (insect cells)

Experiments:
[1] = target: B2; assay: SPR; Biacore 3000, CM5 chip; sCNTFRα immobilised at 66 to 86 fmol/mm^2; 25°C; 10 mM HEPES, 150 mM NaCl, 1.5 mM CaCl2, 1 mM EGTA, 0.005% Tween 20, pH 7.4; Langmuir 1:1 model, global fitting; conditions: both partners purified
sorLA Vps10p-D = target: T1, sorLA Vps10p-D (human); assay: SPR
T1 chain: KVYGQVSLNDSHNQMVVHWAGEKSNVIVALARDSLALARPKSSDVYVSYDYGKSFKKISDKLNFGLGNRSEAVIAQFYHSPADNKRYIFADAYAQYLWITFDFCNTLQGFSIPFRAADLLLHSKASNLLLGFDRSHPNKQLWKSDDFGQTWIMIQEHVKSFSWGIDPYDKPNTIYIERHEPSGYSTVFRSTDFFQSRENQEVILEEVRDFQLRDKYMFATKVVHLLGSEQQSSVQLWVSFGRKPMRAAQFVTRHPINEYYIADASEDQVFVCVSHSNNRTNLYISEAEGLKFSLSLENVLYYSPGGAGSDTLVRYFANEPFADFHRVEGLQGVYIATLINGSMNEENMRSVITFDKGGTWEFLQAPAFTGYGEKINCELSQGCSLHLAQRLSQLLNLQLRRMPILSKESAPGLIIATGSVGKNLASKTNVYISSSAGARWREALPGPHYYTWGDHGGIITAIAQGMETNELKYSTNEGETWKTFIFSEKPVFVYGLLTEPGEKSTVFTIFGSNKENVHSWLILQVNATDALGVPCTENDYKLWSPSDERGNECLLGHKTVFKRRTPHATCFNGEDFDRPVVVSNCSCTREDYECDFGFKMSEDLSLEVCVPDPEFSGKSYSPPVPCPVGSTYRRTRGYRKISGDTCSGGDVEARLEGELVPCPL

[2] = target: T2, soluble sorLA (entire luminal part of sorLA) (human, UniProt Q92673 82-2137); assay: SPR; immobilised sorLA preincubated with buffer or with 5 μM inhibitor (sorLA propeptide or RAP) before the ligand was added; conditions: both partners purified
T2 construct: sorLA, human cDNA, the entire luminal (extracellular) part; also called luminal domain of sorLA; ectodomain of sorLA
T2 sequence (Q92673 82-2137): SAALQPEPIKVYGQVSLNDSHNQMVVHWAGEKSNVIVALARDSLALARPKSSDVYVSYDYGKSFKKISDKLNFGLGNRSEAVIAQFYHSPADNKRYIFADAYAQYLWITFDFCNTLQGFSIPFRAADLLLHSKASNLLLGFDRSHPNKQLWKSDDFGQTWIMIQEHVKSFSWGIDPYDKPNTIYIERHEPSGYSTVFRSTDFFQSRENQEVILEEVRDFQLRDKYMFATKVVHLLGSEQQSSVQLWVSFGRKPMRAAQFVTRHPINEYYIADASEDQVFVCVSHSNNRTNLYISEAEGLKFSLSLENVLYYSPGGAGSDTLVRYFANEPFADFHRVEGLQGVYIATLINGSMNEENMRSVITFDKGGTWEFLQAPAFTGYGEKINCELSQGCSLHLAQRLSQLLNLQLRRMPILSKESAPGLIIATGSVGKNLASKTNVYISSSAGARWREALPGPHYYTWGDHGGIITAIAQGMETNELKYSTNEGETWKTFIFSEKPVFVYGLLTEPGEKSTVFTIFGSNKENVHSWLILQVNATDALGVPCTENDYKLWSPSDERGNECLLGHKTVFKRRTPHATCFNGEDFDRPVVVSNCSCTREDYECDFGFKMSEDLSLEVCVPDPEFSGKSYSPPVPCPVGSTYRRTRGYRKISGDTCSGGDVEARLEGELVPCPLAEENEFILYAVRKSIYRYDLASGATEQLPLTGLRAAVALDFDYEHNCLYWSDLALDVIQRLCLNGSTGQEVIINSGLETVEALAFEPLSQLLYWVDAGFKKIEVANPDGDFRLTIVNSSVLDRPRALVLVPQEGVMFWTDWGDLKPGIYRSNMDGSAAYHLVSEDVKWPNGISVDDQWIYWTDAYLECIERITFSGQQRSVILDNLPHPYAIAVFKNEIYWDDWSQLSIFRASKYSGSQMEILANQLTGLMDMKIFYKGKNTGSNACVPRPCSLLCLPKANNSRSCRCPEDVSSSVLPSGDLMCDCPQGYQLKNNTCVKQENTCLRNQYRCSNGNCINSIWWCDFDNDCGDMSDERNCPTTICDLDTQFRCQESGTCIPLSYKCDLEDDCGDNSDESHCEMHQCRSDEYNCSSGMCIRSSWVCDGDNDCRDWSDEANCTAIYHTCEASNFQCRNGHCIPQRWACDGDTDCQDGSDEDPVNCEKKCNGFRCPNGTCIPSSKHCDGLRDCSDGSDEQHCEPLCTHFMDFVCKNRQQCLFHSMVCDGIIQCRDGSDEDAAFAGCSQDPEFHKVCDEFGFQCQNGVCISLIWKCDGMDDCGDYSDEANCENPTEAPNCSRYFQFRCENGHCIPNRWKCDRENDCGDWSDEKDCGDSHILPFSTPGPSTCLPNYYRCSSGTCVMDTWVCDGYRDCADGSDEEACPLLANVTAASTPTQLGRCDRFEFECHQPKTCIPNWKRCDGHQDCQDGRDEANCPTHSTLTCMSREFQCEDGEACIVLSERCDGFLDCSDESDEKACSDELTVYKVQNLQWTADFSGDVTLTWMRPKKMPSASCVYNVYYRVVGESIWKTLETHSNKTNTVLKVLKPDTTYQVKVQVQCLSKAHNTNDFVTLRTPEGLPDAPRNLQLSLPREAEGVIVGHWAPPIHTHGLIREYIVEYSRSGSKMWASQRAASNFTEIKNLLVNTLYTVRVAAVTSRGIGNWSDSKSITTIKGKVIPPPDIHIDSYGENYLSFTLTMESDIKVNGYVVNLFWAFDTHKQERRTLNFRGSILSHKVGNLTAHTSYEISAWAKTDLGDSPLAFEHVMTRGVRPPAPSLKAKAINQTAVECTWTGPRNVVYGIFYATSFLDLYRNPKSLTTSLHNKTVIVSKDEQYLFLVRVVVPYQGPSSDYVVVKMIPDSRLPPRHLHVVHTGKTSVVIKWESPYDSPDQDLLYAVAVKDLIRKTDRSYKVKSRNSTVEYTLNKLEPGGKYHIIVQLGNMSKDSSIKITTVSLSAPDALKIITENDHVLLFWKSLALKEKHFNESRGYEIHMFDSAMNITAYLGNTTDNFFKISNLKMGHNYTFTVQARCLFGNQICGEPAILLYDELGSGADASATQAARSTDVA

[3] = target: B4; assay: SPR; Biacore 3000, CM5 chip; sCNTFRα immobilised at 66 to 86 fmol/mm^2; 25°C; 10 mM HEPES, 150 mM NaCl, 1.5 mM CaCl2, 1 mM EGTA, 0.005% Tween 20, pH 7.4; Langmuir 1:1 model, global fitting; conditions: both partners purified
[4] = target: T3, recombinant soluble ciliary neurotrophic factor receptor α (human), P26992; assay: as above; conditions: remark: other sources report otherwise
T3 chain: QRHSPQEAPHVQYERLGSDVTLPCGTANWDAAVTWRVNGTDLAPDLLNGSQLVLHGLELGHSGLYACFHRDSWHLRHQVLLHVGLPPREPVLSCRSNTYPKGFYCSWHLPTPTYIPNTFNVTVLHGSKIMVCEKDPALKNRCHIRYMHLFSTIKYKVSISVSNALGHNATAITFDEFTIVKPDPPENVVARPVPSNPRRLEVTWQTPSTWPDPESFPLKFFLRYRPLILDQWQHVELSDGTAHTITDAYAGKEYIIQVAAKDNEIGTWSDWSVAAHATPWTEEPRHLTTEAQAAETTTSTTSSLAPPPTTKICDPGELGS

[5] = target: T2, soluble sorLA (entire luminal part of …); assay: SPR; Biacore 3000, CM5 chip; soluble sorLA (entire luminal part) immobilised at 66 to 86 fmol/mm^2; 25°C; 10 mM HEPES, 150 mM NaCl, 1.5 mM CaCl2, 1 mM EGTA, 0.005% Tween 20, pH 7.4; Langmuir 1:1 model, global fitting; conditions: both partners purified
[6] = target: full-length sorLA in transfected HEK293 cells (human, UniProt Q92673 82-2214); assay: cell-based or functional assay
Chain of full-length sorLA in transfected HEK293 cells (Q92673 82-2214): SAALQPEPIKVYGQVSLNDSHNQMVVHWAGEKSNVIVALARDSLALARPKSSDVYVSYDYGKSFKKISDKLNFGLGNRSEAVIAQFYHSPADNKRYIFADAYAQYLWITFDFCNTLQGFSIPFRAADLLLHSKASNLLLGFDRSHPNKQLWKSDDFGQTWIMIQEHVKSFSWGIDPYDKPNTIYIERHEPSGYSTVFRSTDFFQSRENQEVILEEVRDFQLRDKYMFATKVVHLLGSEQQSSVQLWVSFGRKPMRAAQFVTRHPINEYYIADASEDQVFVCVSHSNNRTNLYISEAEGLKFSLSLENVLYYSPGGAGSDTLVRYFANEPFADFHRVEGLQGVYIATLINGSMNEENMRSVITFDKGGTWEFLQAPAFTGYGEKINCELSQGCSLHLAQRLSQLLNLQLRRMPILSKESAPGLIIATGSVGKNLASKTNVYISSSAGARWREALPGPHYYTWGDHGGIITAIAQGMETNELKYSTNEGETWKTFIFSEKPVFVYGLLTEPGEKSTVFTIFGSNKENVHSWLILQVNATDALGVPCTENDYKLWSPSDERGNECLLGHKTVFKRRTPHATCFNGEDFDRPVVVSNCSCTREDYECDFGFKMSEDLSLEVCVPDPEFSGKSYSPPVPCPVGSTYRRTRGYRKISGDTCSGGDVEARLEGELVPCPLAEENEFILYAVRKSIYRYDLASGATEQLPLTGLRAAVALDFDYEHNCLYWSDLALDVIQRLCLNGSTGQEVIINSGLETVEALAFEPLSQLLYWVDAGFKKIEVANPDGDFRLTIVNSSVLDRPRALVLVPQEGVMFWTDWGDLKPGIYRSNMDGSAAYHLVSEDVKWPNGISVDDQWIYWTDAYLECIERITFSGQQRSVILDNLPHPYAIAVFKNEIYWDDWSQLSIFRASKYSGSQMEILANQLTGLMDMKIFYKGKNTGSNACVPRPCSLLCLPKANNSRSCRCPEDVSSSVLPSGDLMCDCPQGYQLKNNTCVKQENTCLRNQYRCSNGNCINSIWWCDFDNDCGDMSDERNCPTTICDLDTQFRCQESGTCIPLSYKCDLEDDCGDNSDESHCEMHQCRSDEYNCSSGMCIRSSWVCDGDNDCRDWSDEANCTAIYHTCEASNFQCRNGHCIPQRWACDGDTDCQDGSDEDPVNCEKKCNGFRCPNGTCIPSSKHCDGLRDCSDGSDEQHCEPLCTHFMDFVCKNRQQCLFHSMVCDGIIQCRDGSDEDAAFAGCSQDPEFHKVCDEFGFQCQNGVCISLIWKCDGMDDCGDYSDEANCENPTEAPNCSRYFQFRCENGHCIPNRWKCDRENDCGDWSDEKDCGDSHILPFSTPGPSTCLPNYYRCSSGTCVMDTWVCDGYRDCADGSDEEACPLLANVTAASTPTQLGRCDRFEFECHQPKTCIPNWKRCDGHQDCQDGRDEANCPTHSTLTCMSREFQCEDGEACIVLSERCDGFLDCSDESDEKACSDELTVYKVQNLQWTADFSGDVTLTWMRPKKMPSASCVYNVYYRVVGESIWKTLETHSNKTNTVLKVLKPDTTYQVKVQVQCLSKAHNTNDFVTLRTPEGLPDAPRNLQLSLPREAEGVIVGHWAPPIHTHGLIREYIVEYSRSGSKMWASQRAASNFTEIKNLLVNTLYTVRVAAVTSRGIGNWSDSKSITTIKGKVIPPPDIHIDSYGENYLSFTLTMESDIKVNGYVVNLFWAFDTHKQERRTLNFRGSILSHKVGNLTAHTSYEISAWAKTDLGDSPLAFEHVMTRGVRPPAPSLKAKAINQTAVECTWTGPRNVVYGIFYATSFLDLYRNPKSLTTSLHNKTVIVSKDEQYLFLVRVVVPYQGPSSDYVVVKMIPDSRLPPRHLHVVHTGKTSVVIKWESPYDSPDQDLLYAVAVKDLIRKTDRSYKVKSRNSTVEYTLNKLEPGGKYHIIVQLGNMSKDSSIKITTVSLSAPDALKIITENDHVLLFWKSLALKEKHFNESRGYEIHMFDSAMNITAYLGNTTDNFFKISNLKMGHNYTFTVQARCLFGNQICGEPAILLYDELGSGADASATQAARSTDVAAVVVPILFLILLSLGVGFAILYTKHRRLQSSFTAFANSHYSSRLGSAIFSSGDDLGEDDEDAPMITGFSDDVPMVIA

B1: cardiotrophin-like cytokine (ligand, human, UniProt Q9UBD9 28-225, looked up)
chain: LNRTGDPGPGPSIQKTYDLTRYLEHQLRSLAGTYLNYLGPPFNEPDFNPPRLGAETLPRATVDLEVWRSLNDKLRLTQNYEAYSHLLCYLRGLNRQAATAELRRSLAHFCTSLQGLLGSIAGVMAALGYPLPQPLPGTEPTWTPGPAHSDFLQKMDDFWLLKELQTWLWRSAKDFNRLKKKMQPPAAAVTLHLGAHGF
notes: cardiotrophin-like cytokine (CLC), human recombinant; also called CLC; source: bought: R&D Systems (bacteria)
B1 gave a Kd [1] of 66 nM.

For B2, the Kd (sorLA Vps10p-D) was ~14 nM, the binding result [2] was “binds” and the Kd [3] was 0.3 nM.

B3: CLF-1–His (His-tagged cytokine-like factor-1) (natural protein, human, UniProt O75462 38-422, looked up)
chain: AHTAVISPQDPTLLIGSSLLATCSVHGDPPGATAEGLYWTLNGRRLPPELSRVLNASTLALALANLNGSRQRSGDNLVCHARDGSILAGSCLYVGLPPEKPVNISCWSKNMKDLTCRWTPGAHGETFLHTNYSLKYKLRWYGQDNTCEEYHTVGPHSCHIPKDLALFTPYEIWVEATNRLGSARSDVLTLDILDVVTTDPPPDVHVSRVGGLEDQLSVRWVSPPALKDFLFQAKYQIRYRVEDSVDWKVVDDVSNQTSCRLAGLKPGTVYFVQVRCNPFGIYGSKKAGIWSEWSHPTAASTPRSERPGPGGGACEPRGGEPSSGPVRRELKQFLGWLKKHAYCSNLSFRLYDQWRAWMQKSHKTRNQDEGILPSGRRGTARGPAR
notes: signal peptide in the construct; human CLF-1 coding cDNA (ImaGenes) amplified from the start codon to the C terminus, secreted into the medium; The second codon of the forward primer reads GCC (Ala); this lies in the signal peptide; The introduction gives 385 amino acids for human CLF-1; also called His-tagged CLF-1; source: HEK293 cells transfected, purified from serum-free medium (Talon resin) …
B3 gave a Kd [4] of 4 nM and a Kd [5] of 4 nM.

B4 was tested, and the Kd [5] was 5 nM and the “pSTAT3 in CNTFRα-deficient Ba/F3 cells (gp130/LIFRβ) stimulated with CLC:CLF-1 and sCNTFRα, sorLA transfectants against untransfected cells” value [6] was ~4 fold.
